From the Human Domainome abundance scans (Beltran et al. 2025)
± gives the uncertainty stated by the source.

B1: Far upstream element-binding protein 1, residues 98 to 169; numbered along this chain, Q96AE4 (parent)
chain: RSVMTEEYKVPDGMVGFIIGRGGEQISRIQQESGCKIQIAPDSGGLPERSCMLTGTPESVQSAKRLLDQIVE

Variants of: B1
Experiment: abundance fitness (aPCA) (normalised: wild type 0, dead -1); higher = more abundant; growth selection in yeast, the domain comes from the species named
Settings: Homo sapiens
For RSVMTEEYKVPDGMVGFIIGRGGEQISRIQQESGCKIQIAPDSWGLPERSCMLTGTPESVQSAKRLLDQIVE [G44W], the abundance fitness was -0.125 ± 0.033.
Work on RSVMTEEYKVPDGMVGFIIGRGGEQISRIQQESGCKIQIAPDSTGLPERSCMLTGTPESVQSAKRLLDQIVE [G44T] yielded an abundance fitness of 0.002 ± 0.028.
In the case of RSVMTEEYKVPDGMVGFIIGRGGEQISRIQQESGCKIQIAPDSRGLPERSCMLTGTPESVQSAKRLLDQIVE [G44R], the abundance fitness is reported as -0.015 ± 0.024.
RSVMTEEYKVPDGMVGFIIGRGGEQISRIQQESGCKIQIAPDSQGLPERSCMLTGTPESVQSAKRLLDQIVE [G44Q] showed an abundance fitness of -0.023 ± 0.034.
Variant RSVMTEEYKVPDGMVGFIIGRGGEQISRIQQESGCKIQIAPDSPGLPERSCMLTGTPESVQSAKRLLDQIVE [G44P] has an abundance fitness of -0.061 ± 0.03.
In the case of RSVMTEEYKVPDGMVGFIIGRGGEQISRIQQESGCKIQIAPDSYGLPERSCMLTGTPESVQSAKRLLDQIVE [G44Y], the abundance fitness is reported as -0.037 ± 0.034.
In the case of RSVMTEEYKVPDGMVGFIIGRGGEQISRIQQESGCKIQIAPDSSGLPERSCMLTGTPESVQSAKRLLDQIVE [G44S], the abundance fitness is reported as -0.003 ± 0.025.
For RSVMTEEYKVPDGMVGFIIGRGGEQISRIQQESGCKIQIAPDSGGLPFRSCMLTGTPESVQSAKRLLDQIVE [E48F], the abundance fitness was -0.015 ± 0.036.
In the case of RSVMTEEYKVPDGMVGFIIGRGGEQISRIQQESGCKIQIAPDSGGLPCRSCMLTGTPESVQSAKRLLDQIVE [E48C], the abundance fitness is reported as -0.119 ± 0.038.
With RSVMTEEYKVPDGMVGFIIGRGGEQISRIQQESGCKIQIAPDSGGLPVRSCMLTGTPESVQSAKRLLDQIVE [E48V] the abundance fitness was -0.035 ± 0.028.
Work on RSVMTEEYKVPDGMVGFIIGRGGEQISRIQQESGCKIQIAPDSGGLPLRSCMLTGTPESVQSAKRLLDQIVE [E48L] yielded an abundance fitness of 0.001 ± 0.029.
Work on RSVMTEEYKVPDGMVGFIIGRGGEQISRIQQESGCKIQIAPDSGGLPKRSCMLTGTPESVQSAKRLLDQIVE [E48K] yielded an abundance fitness of -0.084 ± 0.042.
With RSVMTEEYKVPDGMVGFIIGRGGEQISRIQQESGCKIQIAPDSGGLPMRSCMLTGTPESVQSAKRLLDQIVE [E48M] the abundance fitness was -0.092 ± 0.036.
RSVMTEEYKVPDGMVGFIIGRGGEQISRIQQESGCKIQIAPDSGGLPTRSCMLTGTPESVQSAKRLLDQIVE [E48T] gave an abundance fitness of -0.028 ± 0.036.
Variant RSVMTEEYKVPDGMVGFIIGRGGEQISRIQQESGCKIQIAPDSGGLPSRSCMLTGTPESVQSAKRLLDQIVE [E48S] has an abundance fitness of -0.057 ± 0.03.
For RSVMTEEYKVPDGMVGFIIGRGGEQISRIQQESGCKIQIAPDSGGLPHRSCMLTGTPESVQSAKRLLDQIVE [E48H], the abundance fitness was -0.114 ± 0.054.
For RSVMTEEYKVPDGMVGFIIGRGGEQISRIQQESGCKIQIAPDSGGLPQRSCMLTGTPESVQSAKRLLDQIVE [E48Q], the abundance fitness was -0.085 ± 0.041.
In the case of RSVMTEEYKVPDGMVGFIIGRGGEQISRIQQESGCKIQIAPDSGGLPIRSCMLTGTPESVQSAKRLLDQIVE [E48I], the abundance fitness is reported as -0.057 ± 0.044.
Variant RSVMTEEYKVPDGMVGFIIGRGGEQISRIQQESGCKIQIAPDSGGLPNRSCMLTGTPESVQSAKRLLDQIVE [E48N] has an abundance fitness of -0.019 ± 0.05.
RSVMTEEYKVPDGMVGFIIGRGGEQISRIQQESGCKIQIAPDSGGLPGRSCMLTGTPESVQSAKRLLDQIVE [E48G] showed an abundance fitness of -0.045 ± 0.026.
RSVMTEEYKVPDGMVGFIIGRGGEQISRIQQESGCKIQIAPDSGGLPARSCMLTGTPESVQSAKRLLDQIVE [E48A] showed an abundance fitness of -0.041 ± 0.03.
In the case of RSVMTEEYKVPDGMVGFIIGRGGEQISRIQQESGCKIQIAPDSGGLPWRSCMLTGTPESVQSAKRLLDQIVE [E48W], the abundance fitness is reported as 0.004 ± 0.031.
For RSVMTEEYKVPDGMVGFIIGRGGEQISRIQQESGCKIQIAPDSGGLPDRSCMLTGTPESVQSAKRLLDQIVE [E48D], the abundance fitness was -0.059 ± 0.041.
In the case of RSVMTEEYKVPDGMVGFIIGRGGEQISRIQQESGCKIQIAPDSGGLPPRSCMLTGTPESVQSAKRLLDQIVE [E48P], the abundance fitness is reported as -0.088 ± 0.038.
With RSVMTEEYKVPDGMVGFIIGRGGEQISRIQQESGCKIQIAPDSGGWPERSCMLTGTPESVQSAKRLLDQIVE [L46W] the abundance fitness was -0.132 ± 0.031.
In the case of RSVMTEEYKVPDGMVGFIIGRGGEQISRIQQESGCKIQIAPDSGGDPERSCMLTGTPESVQSAKRLLDQIVE [L46D], the abundance fitness is reported as -0.006 ± 0.046.
RSVMTEEYKVPDGMVGFIIGRGGEQISRIQQESGCKIQIAPDSGGFPERSCMLTGTPESVQSAKRLLDQIVE [L46F] showed an abundance fitness of -0.004 ± 0.052.
RSVMTEEYKVPDGMVGFIIGRGGEQISRIQQESGCKIQIAPDSGGEPERSCMLTGTPESVQSAKRLLDQIVE [L46E] showed an abundance fitness of 0.016 ± 0.034.
For RSVMTEEYKVPDGMVGFIIGRGGEQISRIQQESGCKIQIAPDSGGCPERSCMLTGTPESVQSAKRLLDQIVE [L46C], the abundance fitness was -0.026 ± 0.038.
RSVMTEEYKVPDGMVGFIIGRGGEQISRIQQESGCKIQIAPDSGGPPERSCMLTGTPESVQSAKRLLDQIVE [L46P] showed an abundance fitness of -0.124 ± 0.037.
With RSVMTEEYKVPDGMVGFIIGRGGEQISRIQQESGCKIQIAPDSGGYPERSCMLTGTPESVQSAKRLLDQIVE [L46Y] the abundance fitness was -0.093 ± 0.049.
Work on RSVMTEEYKVPDGMVGFIIGRGGEQISRIQQESGCKIQIAPDSGGIPERSCMLTGTPESVQSAKRLLDQIVE [L46I] yielded an abundance fitness of -0.092 ± 0.049.
RSVMTEEYKVPDGMVGFIIGRGGEQISRIQQESGCKIQIAPDSGGKPERSCMLTGTPESVQSAKRLLDQIVE [L46K] showed an abundance fitness of -0.006 ± 0.037.
RSVMTEEYKVPDGMVGFIIGRGGEQISRIQQESGCKIQIAPDSGGNPERSCMLTGTPESVQSAKRLLDQIVE [L46N] gave an abundance fitness of -0.023 ± 0.055.
Variant RSVMTEEYKVPDGMVGFIIGRGGEQISRIQQESGCKIQIAPDSGGRPERSCMLTGTPESVQSAKRLLDQIVE [L46R] has an abundance fitness of -0.006 ± 0.025.
RSVMTEEYKVPDGMVGFIIGRGGEQISRIQQESGCKIQIAPDSGGGPERSCMLTGTPESVQSAKRLLDQIVE [L46G] showed an abundance fitness of -0.01 ± 0.025.
Variant RSVMTEEYKVPDGMVGFIIGRGGEQISRIQQESGCKIQIAPDSGGMPERSCMLTGTPESVQSAKRLLDQIVE [L46M] has an abundance fitness of -0.031 ± 0.036.
